Reference: US20090163411A1 (BOLDER BIOTECHNOLOGY, published 2009)
Numbering of substitutions follows the chain as printed. Numbers in names are those of the source. One block for each binder: values may come before it.

Biological target: Recombinant Human Vascular Endothelial Growth Factor (rhVEGF) (human, UniProt P15692-4 27-191, limits assumed)
Experiment: cell-based or functional assay

Recombinant Human Vascular Endothelial Growth Factor (rhVEGF), sequence (P15692 other isoform, or with tags, fused parts or gaps limits assumed): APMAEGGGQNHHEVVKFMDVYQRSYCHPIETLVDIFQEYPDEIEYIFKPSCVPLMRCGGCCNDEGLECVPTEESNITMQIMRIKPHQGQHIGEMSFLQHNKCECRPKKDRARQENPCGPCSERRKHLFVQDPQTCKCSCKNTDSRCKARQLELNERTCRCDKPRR

- Ave Ec50's (ng/ml); inhibition of VEGF-stimulated HUVEC proliferation, BrdU Cell Proliferation assay: 75 ng/mL
B1: 20 kDa-Cys-Flt-1(3) N164C (receptor)
chain: SKLKDPELSLKGTQHIMQAGQTLHLQCRGEAAHKWSLPEMVSKESERLSITKSACGRNGKQFCSTLTLNTAQANHTGFYSCKYLAVPTSKKKETESAIYIFISDTGRPFVEMYSEIPEIIHMTEGRELVIPCRVTSPCITVTLKKFPLDTLIPDGKRIIWDSRKGFIISNATYKEIGLLTCEATVNGHLYKTNYLTHRQTNTIIDVQISTPRPVKLLRGHTLVLNCTATTPLNTRVQMTWSYPDEKNKRASVRRRIDQSNSHANIFYSVLTIDKMQNKDKGLYTCRVRSGPSFKSVNTSVHIYDKAFITVKH
modifications: 20 kDa maleimide-PEG on Cys 164

- Ave Ec50's (ng/ml); inhibition of VEGF-stimulated HUVEC proliferation, BrdU Cell Proliferation assay: 53 ng/mL
B2: sFlt-1(3) N100C (receptor)
chain: B1 chain with N74C, C138N

- Ave Ec50's (ng/ml); inhibition of VEGF-stimulated HUVEC proliferation, BrdU Cell Proliferation assay: 36 ng/mL
B3: Wild type sFlt-1(3) (receptor)
chain: B1 chain with C138N

- Ave Ec50's (ng/ml); inhibition of VEGF-stimulated HUVEC proliferation, BrdU Cell Proliferation assay: 66 ng/mL
B4: 20 kDa-Cys-Flt-1(3) N100C (receptor)
chain: B1 chain with N74C, C138N
modifications: 20 kDa maleimide-PEG on Cys 100

- Ave Ec50's (ng/ml); inhibition of VEGF-stimulated HUVEC proliferation, BrdU Cell Proliferation assay: 88 ng/mL
B5: sFlt-1(3) N196C (receptor)
chain: B1 chain with C138N, N170C

- Ave Ec50's (ng/ml); inhibition of VEGF-stimulated HUVEC proliferation, BrdU Cell Proliferation assay: 103 ng/mL
B6: sFlt-1(3) N164C (receptor)
chain: B1 chain

- Ave Ec50's (ng/ml); inhibition of VEGF-stimulated HUVEC proliferation, BrdU Cell Proliferation assay: 60 ng/mL
B7: sFlt-1(3) D31C (receptor)
chain: B1 chain with D5C, C138N

- Ave Ec50's (ng/ml); inhibition of VEGF-stimulated HUVEC proliferation, BrdU Cell Proliferation assay: 80 ng/mL
B8: 20 kDa-Cys-Flt-1(3) D31C (receptor)
chain: B1 chain with D5C, C138N
modifications: 20 kDa maleimide-PEG on Cys 31

- Ave Ec50's (ng/ml); inhibition of VEGF-stimulated HUVEC proliferation, BrdU Cell Proliferation assay: 59 ng/mL
B9: 20 kDa-Cys-Flt-1(3) N196C (receptor)
chain: B1 chain with C138N, N170C
modifications: 20 kDa maleimide-PEG on Cys 196

- Ave Ec50's (ng/ml); inhibition of VEGF-stimulated HUVEC proliferation, BrdU Cell Proliferation assay: 55 ng/mL
B10: sFlt-1(3) H338C (receptor)
chain: B1 chain with C138N, H312C

- Ave Ec50's (ng/ml); inhibition of VEGF-stimulated HUVEC proliferation, BrdU Cell Proliferation assay: 40 ng/mL
B11: 20 kDa-Cys-Flt-1(3) N323C (receptor)
chain: B1 chain with C138N, N297C
modifications: 20 kDa maleimide-PEG on Cys 323

- Ave Ec50's (ng/ml); inhibition of VEGF-stimulated HUVEC proliferation, BrdU Cell Proliferation assay: 19 ng/mL
B12: 20 kDa-Cys-Flt-1(3) H338C (receptor)
chain: B1 chain with C138N, H312C
modifications: 20 kDa maleimide-PEG on Cys 338

- Ave Ec50's (ng/ml); inhibition of VEGF-stimulated HUVEC proliferation, BrdU Cell Proliferation assay: 32 ng/mL
B13: sFlt-1(3) N323C (receptor)
chain: B1 chain with C138N, N297C

- Ave Ec50's (ng/ml); inhibition of VEGF-stimulated HUVEC proliferation, BrdU Cell Proliferation assay: 76 ng/mL
B14: Wild type sFlt-1(fl) (receptor)
chain: SKLKDPELSLKGTQHIMQAGQTLHLQCRGEAAHKWSLPEMVSKESERLSITKSACGRNGKQFCSTLTLNTAQANHTGFYSCKYLAVPTSKKKETESAIYIFISDTGRPFVEMYSEIPEIIHMTEGRELVIPCRVTSPNITVTLKKFPLDTLIPDGKRIIWDSRKGFIISNATYKEIGLLTCEATVNGHLYKTNYLTHRQTNTIIDVQISTPRPVKLLRGHTLVLNCTATTPLNTRVQMTWSYPDEKNKRASVRRRIDQSNSHANIFYSVLTIDKMQNKDKGLYTCRVRSGPSFKSVNTSVHIYDKAFITVKHRKQQVLETVAGKRSYRLSMKVKAFPSPEVVWLKDGLPATEKSARYLTRGYSLIIKDVTEEDAGNYTILLSIKQSNVFKNLTATLIVNVKPQIYEKAVSSFPDPALYPLGSRQILTCTAYGIPQPTIKWFWHPCNHNHSEARCDFCSNNEESFILDADSNMGNRIESITQRMAIIEGKNKMASTLVVADSRISGIYICIASNKVGTVGRNISFYITDVPNGFHVNLEKMPTEGEDLKLSCTVNKFLYRDVTWILLRTVNNRTMHYSISKQKMAITKEHSITLNLTIMNVSLQDSGTYACRARNVYTGEEILQKKEITIR

- Ave Ec50's (ng/ml); inhibition of VEGF-stimulated HUVEC proliferation, BrdU Cell Proliferation assay: 43 ng/mL
B15: sFlt-1(3) G26C (receptor)
chain: CSKLKDPELSLKGTQHIMQAGQTLHLQCRGEAAHKWSLPEMVSKESERLSITKSACGRNGKQFCSTLTLNTAQANHTGFYSCKYLAVPTSKKKETESAIYIFISDTGRPFVEMYSEIPEIIHMTEGRELVIPCRVTSPNITVTLKKFPLDTLIPDGKRIIWDSRKGFIISNATYKEIGLLTCEATVNGHLYKTNYLTHRQTNTIIDVQISTPRPVKLLRGHTLVLNCTATTPLNTRVQMTWSYPDEKNKRASVRRRIDQSNSHANIFYSVLTIDKMQNKDKGLYTCRVRSGPSFKSVNTSVHIYDKAFITVKH

- Ave Ec50's (ng/ml); inhibition of VEGF-stimulated HUVEC proliferation, BrdU Cell Proliferation assay: 54 ng/mL
B16: 20 kDa-Cys-Flt-1(3) G26C (receptor)
chain: B15 chain
modifications: 20 kDa maleimide-PEG on Cys 26
